Data: publication PMC4002761

Molecular target: Taxol-stabilized Cy5-microtubules
Assay: single-molecule TIRF microscopy

fold increase in the frequency of active landing events against FL WT Kif21a [fold] | Substance
10 | mouse GFP-fused FL MT1 (M356T) Kif21a (natural protein)
10 | mouse GFP-fused FL MT3 (R943W) Kif21a (natural protein)
